This is an account of results in patent publication WO2012028683A1 (dated 2012).

This test deals with T1, recombinant human SOST (human, UniProt Q9BQB4 24-213, labeled with Cy5 (site not stated)).
T1 construct: Acceptor-labelled partner in the FRET assay; also called sclerostin; Cy5-SOST
T1 sequence (looked up): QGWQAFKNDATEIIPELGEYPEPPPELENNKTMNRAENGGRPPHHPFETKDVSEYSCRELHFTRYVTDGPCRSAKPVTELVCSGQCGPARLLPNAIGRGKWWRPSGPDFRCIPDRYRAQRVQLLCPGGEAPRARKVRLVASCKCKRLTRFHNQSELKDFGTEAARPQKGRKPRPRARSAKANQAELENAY
The experiment in a line: FRET competition assay (inhibition of SOST binding to LRP6(Fc)), antibody released from the PBS gel.

B1: ANTIBODY 1 (antibody, human IgG2, lambda, V domains shown)
VH: QVQLVESGGGLVQPGGSLRLSCAASGFTFRSHWLSWVRQAPGKGLEWVSNINYDGSSTYYADSVKGRFTISRDNSKNTLYLQMNSLRAEDTAVYYCARDTYLHFDYWGQGTLVTVSS
VL: DIALTQPASVSGSPGQSITISCTGTSSDVGDINDVSWYQQHPGKAPKLMIYDVNNRPSGVSNRFSGSKSGNTASLTISGLQAEDEADYYCQSYAGSYLSEVFGGGTKLTVLG
notes: also called anti-sclerostin antibody; mAb
As to B1, the binding result was “binds”.
